Test system: Escherichia coli TOP10
Test: shrunken log2 fold change of peptide-encoding DNA abundance (4.5 h post-induction vs induction); higher = less antimicrobial activity (less host growth inhibition)
Details: time post-induction: 4.5 h; library: site-saturation at positions 5, 18, 19, 20
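Further: peptides expressed intracellularly from a pBAD plasmid library in pooled LB shake-flask culture, induced with 0.3% L-arabinose, DNA abundance read by NGS, three biological replicates, DESeq2 with apeglm shrinkage.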

Sequence	shrunken log2 fold change
RRIRGRPPRLPRPRPRPYQQPRP	0.0771
RRIRGRPPRLPRPRPRPKMQPRP	0.292
RRIRMRPPRLPRPRPRPFVAPRP	0.113
RRIRKRPPRLPRPRPRPWSPPRP	0.0668
RRIRVRPPRLPRPRPRPTQSPRP	0.332
RRIRNRPPRLPRPRPRPNQEPRP	-0.0316
RRIRDRPPRLPRPRPRPVDHPRP	-0.173
RRIRRRPPRLPRPRPRPHCAPRP	0.419
RRIRFRPPRLPRPRPRPFRPPRP	-0.466
RRIRCRPPRLPRPRPRPRFAPRP	0.356
RRIRNRPPRLPRPRPRPGADPRP	0.0958
RRIRIRPPRLPRPRPRPCVDPRP	-0.0909
RRIRWRPPRLPRPRPRPVYVPRP	-0.231
RRIRLRPPRLPRPRPRPVQDPRP	-0.105
RRIRWRPPRLPRPRPRPHEKPRP	-0.00914
RRIRCRPPRLPRPRPRPCKCPRP	-0.0236
RRIRWRPPRLPRPRPRPLRVPRP	0.874
RRIRERPPRLPRPRPRPRGMPRP	0.0957
RRIRYRPPRLPRPRPRPQIDPRP	0.0753
RRIRYRPPRLPRPRPRPCPYPRP	-0.0107
RRIRDRPPRLPRPRPRPVFDPRP	0.291
RRIRFRPPRLPRPRPRPNNCPRP	-0.167
RRIRIRPPRLPRPRPRPYLPPRP	-0.206
RRIRARPPRLPRPRPRPKSNPRP	0.253
RRIRCRPPRLPRPRPRPGAWPRP	0.462

Sequence	shrunken log2 fold change
RRIRVRPPRLPRPRPRPVLNPRP	-0.2
RRIRMRPPRLPRPRPRPFYCPRP	-0.118
RRIRVRPPRLPRPRPRPKHEPRP	-0.0072
RRIRMRPPRLPRPRPRPDEPPRP	2.72
RRIRPRPPRLPRPRPRPKQAPRP	-0.0162
RRIRNRPPRLPRPRPRPAKLPRP	-0.153
RRIRDRPPRLPRPRPRPECTPRP	1.05
RRIRGRPPRLPRPRPRPDHDPRP	0.301
RRIRYRPPRLPRPRPRPPFIPRP	-0.637
RRIRFRPPRLPRPRPRPPFKPRP	-0.183
RRIRQRPPRLPRPRPRPYSYPRP	-0.337
RRIRYRPPRLPRPRPRPWSKPRP	-0.0945
RRIRHRPPRLPRPRPRPWIHPRP	-0.197
RRIRARPPRLPRPRPRPSKLPRP	-0.118
RRIRWRPPRLPRPRPRPTDCPRP	0.088
RRIRFRPPRLPRPRPRPNIYPRP	-0.116
RRIRLRPPRLPRPRPRPAIYPRP	-1.28
RRIRLRPPRLPRPRPRPVMDPRP	-0.0398
RRIRSRPPRLPRPRPRPPATPRP	0.725
RRIRCRPPRLPRPRPRPWDTPRP	-0.282
RRIRMRPPRLPRPRPRPMMIPRP	-0.025
RRIRQRPPRLPRPRPRPDFFPRP	0.00508
RRIRDRPPRLPRPRPRPCFDPRP	0.581
RRIRARPPRLPRPRPRPSGIPRP	0.0311
RRIRLRPPRLPRPRPRPDPRPRP	0.603

Sequence	shrunken log2 fold change
RRIRVRPPRLPRPRPRPPHMPRP	-0.0804
RRIRFRPPRLPRPRPRPLRDPRP	0.717
RRIRWRPPRLPRPRPRPPAFPRP	0.204
RRIRPRPPRLPRPRPRPQQHPRP	-0.0726
RRIRKRPPRLPRPRPRPFFKPRP	0.0178
RRIRTRPPRLPRPRPRPHCFPRP	-0.102
RRIRERPPRLPRPRPRPPTPPRP	0.192
RRIRARPPRLPRPRPRPKLDPRP	0.655
RRIRTRPPRLPRPRPRPGQHPRP	0.351
RRIRNRPPRLPRPRPRPLQSPRP	-0.0505
RRIRPRPPRLPRPRPRPNHMPRP	-0.319
RRIRLRPPRLPRPRPRPGLEPRP	0.11
RRIRFRPPRLPRPRPRPEIMPRP	-0.269
RRIRTRPPRLPRPRPRPKMAPRP	0.129
RRIRLRPPRLPRPRPRPRMVPRP	0.0504
RRIRERPPRLPRPRPRPIWGPRP	-0.0579
RRIRQRPPRLPRPRPRPINWPRP	-0.0302
RRIRKRPPRLPRPRPRPATNPRP	0.712
RRIRYRPPRLPRPRPRPIHMPRP	-0.0796
RRIRWRPPRLPRPRPRPFFDPRP	0.0993
RRIRKRPPRLPRPRPRPERLPRP	0.209
RRIRLRPPRLPRPRPRPQENPRP	-0.261
RRIRDRPPRLPRPRPRPNNMPRP	-0.0368
RRIRIRPPRLPRPRPRPVGNPRP	0.00174
RRIRNRPPRLPRPRPRPNTDPRP	-0.249

Sequence	shrunken log2 fold change
RRIRIRPPRLPRPRPRPQPKPRP	-0.0343
RRIRKRPPRLPRPRPRPMGFPRP	-0.00871
RRIRPRPPRLPRPRPRPGIVPRP	-0.0451
RRIRWRPPRLPRPRPRPTGVPRP	0.334
RRIRARPPRLPRPRPRPRRLPRP	0.537
RRIRRRPPRLPRPRPRPTPTPRP	1.14
RRIRTRPPRLPRPRPRPQELPRP	0.0724
RRIRMRPPRLPRPRPRPRCCPRP	0.373
RRIRVRPPRLPRPRPRPCFLPRP	-0.493
RRIRKRPPRLPRPRPRPIPLPRP	0.0106
RRIRTRPPRLPRPRPRPNYQPRP	-0.362
RRIRSRPPRLPRPRPRPKFLPRP	-0.0307
RRIRNRPPRLPRPRPRPSFPPRP	-0.19
RRIRARPPRLPRPRPRPASPPRP	0.499
RRIRRRPPRLPRPRPRPQKYPRP	-0.696
RRIRIRPPRLPRPRPRPACGPRP	0.271
RRIRHRPPRLPRPRPRPTTIPRP	-0.165
RRIRLRPPRLPRPRPRPSWSPRP	0.0192
RRIRYRPPRLPRPRPRPCGYPRP	-0.467
RRIRHRPPRLPRPRPRPWCEPRP	0.0456
RRIRVRPPRLPRPRPRPTHWPRP	0.509
RRIRCRPPRLPRPRPRPPWPPRP	0.54
RRIRMRPPRLPRPRPRPPRQPRP	1.43
RRIRGRPPRLPRPRPRPIYQPRP	0.0644
RRIRYRPPRLPRPRPRPIMYPRP	-0.0119

Sequence	shrunken log2 fold change
RRIRARPPRLPRPRPRPACEPRP	0.879
RRIRIRPPRLPRPRPRPTFQPRP	-0.0244
RRIRFRPPRLPRPRPRPTYLPRP	-0.243
RRIRERPPRLPRPRPRPKIQPRP	-0.259
RRIRFRPPRLPRPRPRPTFYPRP	-0.366
RRIRSRPPRLPRPRPRPHVLPRP	-0.54
RRIRIRPPRLPRPRPRPDSVPRP	0.0234
RRIRSRPPRLPRPRPRPKPAPRP	0.555
RRIRVRPPRLPRPRPRPMDQPRP	0.188
RRIRFRPPRLPRPRPRPVRWPRP	0.632
RRIRTRPPRLPRPRPRPNLRPRP	-0.184
RRIRPRPPRLPRPRPRPQKKPRP	-0.113
RRIRHRPPRLPRPRPRPQCYPRP	-0.75
RRIRSRPPRLPRPRPRPLCSPRP	0.0443
RRIRERPPRLPRPRPRPKQKPRP	-0.0338
RRIRQRPPRLPRPRPRPTMPPRP	0.2
RRIRYRPPRLPRPRPRPQQPPRP	0.0699
RRIRNRPPRLPRPRPRPSPCPRP	-0.36
RRIRQRPPRLPRPRPRPFGFPRP	-0.233
RRIRARPPRLPRPRPRPSFAPRP	0.432
RRIRHRPPRLPRPRPRPCWEPRP	0.153
RRIRERPPRLPRPRPRPWYKPRP	-0.0738
RRIRHRPPRLPRPRPRPAEAPRP	-0.0896
RRIRVRPPRLPRPRPRPGPDPRP	0.465
RRIRSRPPRLPRPRPRPACEPRP	0.233

Sequence	shrunken log2 fold change
RRIRYRPPRLPRPRPRPLRHPRP	-0.177
RRIRPRPPRLPRPRPRPGPQPRP	0.521
RRIRCRPPRLPRPRPRPEMPPRP	0.65
RRIRIRPPRLPRPRPRPRPNPRP	0.091
RRIRSRPPRLPRPRPRPCAVPRP	-0.255
RRIRKRPPRLPRPRPRPSFIPRP	-0.262
RRIRRRPPRLPRPRPRPQVRPRP	-0.0161
RRIRARPPRLPRPRPRPVCHPRP	0.321
RRIRGRPPRLPRPRPRPFRTPRP	-0.0333
RRIRNRPPRLPRPRPRPVPLPRP	-0.539
RRIRRRPPRLPRPRPRPFKQPRP	-0.182
RRIRGRPPRLPRPRPRPGCSPRP	0.867
RRIRHRPPRLPRPRPRPCQVPRP	-0.345
RRIRTRPPRLPRPRPRPEHLPRP	-0.00973
RRIRDRPPRLPRPRPRPTTCPRP	0.463
RRIRERPPRLPRPRPRPNDHPRP	-0.622
RRIRDRPPRLPRPRPRPRSKPRP	0.401
RRIRMRPPRLPRPRPRPDKSPRP	0.283
RRIRQRPPRLPRPRPRPKEQPRP	-0.0394
RRIRWRPPRLPRPRPRPQAGPRP	0.335
RRIRARPPRLPRPRPRPMGKPRP	0.472
RRIRKRPPRLPRPRPRPPNYPRP	-0.19
RRIRRRPPRLPRPRPRPSDHPRP	-0.0811
RRIRMRPPRLPRPRPRPKCRPRP	0.0493
RRIRWRPPRLPRPRPRPNATPRP	0.736
